Test results from publication PMC11933058 (Frontiers in Immunology, 2025).
Each block holds one binder with its values, some of them ahead of it.

Legend:
[1] = biological target: T1, SIRPα with C-terminal Flag tag, overexpressed in HEK293 cells (UniProt P78324); experiment: flow cytometry on cells; HEK293 transiently transfected with the Flag-tagged target, fixed and permeabilized, incubated with raw antibody supernatants 1 h at room temperature; APC anti-human IgG and PE anti-Flag; % APC+PE+ cells; conditions: partners not purified
T1 construct: SIRPα, transmembrane target, synthetic gene; source: HEK293, transiently transfected (pcDNA3.1), cells fixed and permeabilized; not shown: Flag, C-terminal, kept

[2] = biological target: T2, TIT-H52H5 Human TIGIT Protein, His Tag, active dimer (ACROBiosystems) (Homo sapiens, UniProt Q495A1); experiment: BLI; Octet RED96, antibody loaded from supernatant on anti-human Fc (AHC) biosensors, recombinant TIM3 or TIGIT in solution; PBS, 30°C, 1000 rpm; association 300 sec, dissociation 300 sec; global 1:1 fit; conditions: one partner purified
T2 construct: TIGIT, human, recombinant extracellular domain; the methods describe the His-tagged protein; For BLI only 'recombinant TIGIT' is said; also called VSIG9; T-cell immunoreceptor with Ig and ITIM domains; source: bought: ACROBiosystems
T2 sequence (Q495A1 22-141): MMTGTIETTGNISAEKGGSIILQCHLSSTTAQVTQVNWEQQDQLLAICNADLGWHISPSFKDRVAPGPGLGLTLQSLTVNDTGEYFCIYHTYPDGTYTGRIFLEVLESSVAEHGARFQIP

[3] = biological target: T2, TIT-H52H5 Human TIGIT Protein, His Tag, …; experiment: AlphaScreen or HTRF; dose-response of antibodies (human IgG1 in concentrated, dosed HEK293 supernatant) on recombinant TIM3 or TIGIT at 0.6 ng/µl; 1 h incubation, then donor and acceptor sensors 1 h; EC50 from a fit in GraphPad Prism; conditions: one partner purified
[4] = biological target: T3, recombinant human TIM3 extracellular domain, 6-His C-ter-tagged (ACROBiosystems) (Homo sapiens, UniProt Q8TDQ0); experiment: BLI; Octet RED96, antibody loaded from supernatant on anti-human Fc (AHC) biosensors, recombinant TIM3 or TIGIT in solution; PBS, 30°C, 1000 rpm; association 300 sec, dissociation 300 sec; global 1:1 fit; conditions: one partner purified
T3 construct: TIM3 (HAVCR2), human, recombinant extracellular domain; the methods describe the His-tagged protein; For BLI only 'recombinant TIM3' is said; also called HAVCR-2; HAVCR2; source: bought: ACROBiosystems; not shown: His6, C-terminal, kept

[5] = biological target: T3, recombinant human TIM3 extracellular …; experiment: AlphaScreen or HTRF; dose-response of antibodies (human IgG1 in concentrated, dosed HEK293 supernatant) on recombinant TIM3 or TIGIT at 0.6 ng/µl; 1 h incubation, then donor and acceptor sensors 1 h; EC50 from a fit in GraphPad Prism; conditions: one partner purified

binding result [1]: binds
B1: CC-95251, human IgG1 format (antibody, V domains shown)
VH: QVQLVQSGAEVKKPGASVKVSCKASGYTFRGYGISWVRQAPGQGLEWMGWISAYGGETNYAQKLQGRVTMTTDTSTSTAYMELRSLRSDDTAVYYCAREAGSSWYDFDLWGRGTLVTVSS
VL: DIQMTQSPSSVSASVGDRVTITCRASQGISSWLAWYQQKPGKAPKLLIYAASNLQSGVPSRFSGSGSGTDFTLTISSLQPEDFATYYCQQGASFPITFGGGTKVEIK
notes: constant domains of unmodified human IgG1 heavy chain, from the plasmid pTrioz-hIgG1 (InvivoGen); constant domain of the light chain as encoded by pTrioz-hIgG1; VH and VL by gene synthesis; also called 7ST5; source: HEK293, transiently transfected, supernatant

Kd [2]: 0.681 nM | koff [2]: 0.000279 s⁻¹ | kon [2]: 410000 M⁻¹ s⁻¹ | EC50 [3]: 3.15 nM
B2: Tiragolumab, human IgG1 format (antibody, V domains shown)
VH: EVQLQQSGPGLVKPSQTLSLTCAISGDSVSSNSAAWNWIRQSPSRGLEWLGKTYYRFKWYSDYAVSVKGRITINPDTSKNQFSLQLNSVTPEDTAVFYCTRESTTYDLLAGPFDYWGQGTLVTVSS
VL: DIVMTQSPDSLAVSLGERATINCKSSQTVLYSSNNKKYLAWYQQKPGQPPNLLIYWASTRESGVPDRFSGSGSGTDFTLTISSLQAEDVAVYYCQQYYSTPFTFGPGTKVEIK
notes: VH of Tiragolumab; constant domains of unmodified human IgG1 heavy chain, from the plasmid pTrioz-hIgG1 (InvivoGen); VL of Tiragolumab; constant domain of the light chain as encoded by pTrioz-hIgG1; IgG1; VH and VL by gene synthesis; also called 8JEO; source: HEK293, transiently transfected, supernatant (concentrated)

Kd [4]: 1.01 nM | koff [4]: 0.000219 s⁻¹ | kon [4]: 216000 M⁻¹ s⁻¹ | EC50 [5]: 0.15 nM
B3: Tim3.18, human IgG1 format (antibody, V domains shown)
VH: QLQLQESGPGLVKPSETLSLTCTVSGGSISSRSYYWGWIRQPPGKGLEWIGSIYYSGFTYYQPSLKSRVTISVDTSKNQFSLKLSSVTAADTAVYYCATGGPYGDYAHWFEPWGQGTLVTVSS
VL: not shown
notes: VH of Tim3.18; constant domains of unmodified human IgG1 heavy chain, from the plasmid pTrioz-hIgG1 (InvivoGen); VL of Tim3.18; constant domain of the light chain as encoded by pTrioz-hIgG1; IgG1; VH and VL by gene synthesis; also called 7KQL; source: HEK293, transiently transfected, supernatant (concentrated); also a large batch produced and purified by SinoBiological

Kd [2]: 0.189 nM | koff [2]: 7.43e-05 s⁻¹ | kon [2]: 393000 M⁻¹ s⁻¹ | EC50 [3]: 0.489 nM
B4: MG1131, human IgG1 format (antibody, V domains shown)
VH: EVQLVQSGAEVKKPGASVKVSCKASGYTFTSYYMHWVRQAPGQGLEWMGIINPSGGSTSYAQKFQGRVTMTRDTSTSTVYMELSSLRSEDTAVYYCASRSGSGWFGALDYWGQGTLVTVSS
VL: not shown
notes: VH of MG1131; constant domains of unmodified human IgG1 heavy chain, from the plasmid pTrioz-hIgG1 (InvivoGen); VL of MG1131; constant domain of the light chain as encoded by pTrioz-hIgG1; IgG1; VH and VL by gene synthesis; also called 7VYT; source: HEK293, transiently transfected, supernatant (concentrated)

Kd [4]: 0.2 nM | koff [4]: 3.06e-05 s⁻¹ | kon [4]: 153000 M⁻¹ s⁻¹ | EC50 [5]: 0.193 nM
B5: M6903, human IgG1 format (antibody, V domains shown)
VH: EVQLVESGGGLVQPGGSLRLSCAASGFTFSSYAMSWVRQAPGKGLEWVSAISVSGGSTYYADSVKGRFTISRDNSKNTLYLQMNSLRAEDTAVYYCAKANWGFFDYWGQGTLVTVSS
VL: QSALTQPRSVSGSPGQSVTISCTGTSSDVGGYNYVSWYQQHPGKAPKLMIYDVSKRPSGVPDRFSGSKSGNTASLTISGLQAEDEADYYCSSYADSVVFGGGTKVTVL
notes: VH of M6903; constant domains of unmodified human IgG1 heavy chain, from the plasmid pTrioz-hIgG1 (InvivoGen); VL of M6903; constant domain of the light chain as encoded by pTrioz-hIgG1; IgG1; VH and VL by gene synthesis; also called 6TXZ; source: HEK293, transiently transfected, supernatant (concentrated); also a large batch produced and purified by SinoBiological
